Experimental data as given in patent US20240228559A1, “REDOX SENSITIVE CRALBP MUTANT PROTEINS” (UNIVERSITÄT BERN, priority 2021, published 2024).

What was measured:
CRALBP = biological target: T1, CRALBP (Bos taurus, UniProt P10123); conditions: CRALBP isolated from bovine retina; cited from earlier work
T1 construct: CRALBP was isolated from bovine retina; from tissue; host or cells: bovine retina

[1] = Photoisomerization assay of cis-retinal complexes under daylight bulb, UV/Vis; type: physicochemical; conditions: for k, reaction velocity of photoisomerization: oxidized overnight at 4° C. with 5 mM oxidized glutathione, reduced with DTT
Method: Photoisomerization assays of cis-retinal and its complexes with wild-type CRALBP or with di-cysteine mutant A212C:T250C of CRALBP were performed essentially as described by Saari et al. (Saari J C and Bredberg D L, ([…]), J Biol Chem. 262(16):7618-22). For this, the gel permeation chromatography purified ligand complexes were diluted to 26 μM in (GFC) buffer (10 mM Hepes, 100 mM NaCl, pH 7.5) and equimolar amounts of BSA were added to avoid protein precipitation through the light induced formation of free all-trans-retinal. […] Simultaneously UV/Vis absorption spectra were collected every 180 seconds for 3600 sec in total using the Evolution array UV/Vis spectrophotometer (Thermo Scientific). For photoisomerization experiments of the oxidized mutant A212C: T250C or the wild-type CRALBP, 5 mM oxidized glutathione was added to the preformed complexes and the mixtures were kept overnight at 4° C. For repeated reduction, the oxidized glutathion was first removed from the samples using a Vivaspin 15R Hydrosart (Sartorius) by three times concentrating the samples to a tenth of the volume and subsequent redilution in buffer (10 mM Hepes, 100 mM NaCl, pH 7.5) to the original volume. The washed samples were then reduced by adding 5 mM DTT and kept at 4° C. for 1 hour. […] Thus, the introduction of the A212C:T250C double mutation represents an engineered redox-sensitive on-off switch into human CRALBP allowing for a reversible turning on and off of CRALBP's mobile gate functionality. The two mutations are located at adjacent positions in the mobile gate's interface of CRALBP allowing for the formation of an intramolecular disulfide bond under oxidizing conditions and to regain the gate's native functionality under reducing conditions.

[2] = both in complex with 11-cis-retinal; estimated from first order rate constants and extinction coefficients; cited from earlier work
[3] = Dynamic light scattering of GFC complex fractions; type: physicochemical; conditions: DLS, 25° C., H2O; ± SD
Method: The same fractions derived from the preparative GFC that were characterized by analytical GFC, were also analyzed by dynamic light scattering (DLS) on a Malvern Zetasizer S®. Each DLS experiment contains was performed following the settings compiled in Table 5, the run duration and number of runs per measurement was set according to the auto-optimization of the Malvern Zetasizer software.

T1 sequence (P10123 whole entry): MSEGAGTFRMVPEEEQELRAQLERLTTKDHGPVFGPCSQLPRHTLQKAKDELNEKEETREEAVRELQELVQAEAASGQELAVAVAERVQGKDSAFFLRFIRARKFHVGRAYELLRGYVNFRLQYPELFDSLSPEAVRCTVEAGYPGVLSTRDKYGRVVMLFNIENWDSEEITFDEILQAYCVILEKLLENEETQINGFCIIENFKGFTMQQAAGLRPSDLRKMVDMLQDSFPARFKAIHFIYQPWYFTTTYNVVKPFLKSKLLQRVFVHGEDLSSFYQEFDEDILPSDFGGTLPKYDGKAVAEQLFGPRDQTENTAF

Compound: CC1=C(/C=C/C(C)=C\C=C\C(C)=C\C=O)C(C)(C)CCC1 [9-cis-retinal]
- Kd (CRALBP): 53 nM

Compound: CC1=C(/C=C/C(C)=C/C=C/C(C)=C/C=O)C(C)(C)CCC1 [11-cis-retinal]
- Kd (CRALBP): 20 nM

Compound: CC1=C(/C=C/C(C)=C/C=C\C(C)=C\CO)C(C)(C)CCC1 [11-cis-retinol]
- Kd (CRALBP): 60 nM

Compound: CC1=C(/C=C/C(C)=C/C=C/C(C)=C/C=O)C(C)(C)CCC1 [13-cis]
- binding to CRALBP (CRALBP): does not bind

Compound: A212C:T250C: human CRALBP mutein with alanine 212 and threonine 250 replaced by cysteines, SEQ ID NO:9
- increase of photostability (half-life t1/2), oxidized versus reduced redox state ([1]; FIG. 8, complex with cis-retinal, 1000 lux): 20 fold
- slowing down of the rate of photoisomerization ([1]; oxidized state, FIG. 9, 380 lux, room temperature): at least 10 fold
- behaviour in photoisomerization assay after repeat reduction ([1]; repeat reduction of the oxidized sample in 5 mM DTT): re-established wild-type like behavior

Compound: CRALBP: CRALBP isolated from bovine retina, in complex with 11-cis-retinal
- expected photoisomerization in CRALBP compared to rhodopsin [2]: 4%

Compound: HMW: high molecular weight oligomeric complex fraction of A212C:T250C CRALBP with 9-cis-retinal
- average size distribution in diameter [3]: 13.50±0.47 nm

Compound: SHMW: super high molecular weight oligomeric complex fraction of A212C:T250C CRALBP with 9-cis-retinal
- average size distribution in diameter [3]: 28.28±2.13 nm

Compound: dimeric complex: dimeric GFC fraction of A212C:T250C CRALBP loaded with 9-cis-retinal
- average size distribution in diameter [3]: 8.72±2.41 nm

Compound: monomeric complex of di-cysteine A212C:T250C CRALBP with 9-cis-retinal: monomeric GFC fraction of A212C:T250C CRALBP loaded with 9-cis-retinal
- average size distribution in diameter [3]: 6.50±1.50 nm

Compound: ox. A212C:T250C: 11-cis-retinal: oxidized A212C:T250C mutant in complex with 11-cis-retinal
- k, reaction velocity of photoisomerization ([1]; FIG. 9): 6.44e-06 s⁻¹

Compound: oxidized A212C:T250C:9-cis-retinal: oxidized A212C:T250C mutant in complex with 9-cis-retinal
- photoisomerization detectable ([1]; FIG. 9, oxidized with 5 mM oxidized glutathione): No photoisomerization was detectable

Compound: red. A212C:T250C: 11-cis-retinal: reduced A212C:T250C mutant in complex with 11-cis-retinal
- k, reaction velocity of photoisomerization ([1]; FIG. 9): 5.988e-05 s⁻¹

Compound: wild-type: wild-type CRALBP in complex with cis-retinal, photoisomerization assay [reference compound]
- k, reaction velocity of photoisomerization ([1]; FIG. 9): 6.324e-05 s⁻¹
